From the supplement of paper PMC10567573
± gives the standard deviation.

Assay: protein stability index of a GFP-peptide fusion (GPS, HEK-293T) (PSI 1-6); higher = more stable
[1] = treatment: DMSO, c terminus: a fixed tail appended
[2] = treatment: MLN4924 1 uM, 8 h, c terminus: a fixed tail appended
[3] = treatment: DMSO, c terminus: native
[4] = treatment: MLN4924 1 uM, 8 h, c terminus: native
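Also: 24-mer peptide tiles fused after GFP, lentivirally expressed, FACS-sorted into six equal bins by GFP/DsRed ratio, decoded by Illumina sequencing, PSI is the read-weighted mean bin number.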

Sequence	protein stability index [1]	protein stability index [2]	protein stability index [3]	protein stability index [4]
GVLRPTVRPGTPPDFILKVVIDKH [CTDNEP1]	2.73 ± 0.35	2.67 ± 0.2		
DIFALALTVVCAAGAEPLPRNGDQ [WEE1]	2.77 ± 0.22	2.54 ± 0.61		
KILHTAWHPAENIIAIAATNNLYI [PPP2R2C]	2.81 ± 0.54	2.93 ± 0.53		
YVDVVFANRPDPNTPMEETVRAMT [KCNAB2]	2.66 ± 0.34	3.09 ± 0.7		
ARGTPSPKRMPSGRGGRDRFTAES [FSD1]	4.43 ± 0.3	4.69 ± 0.069		
LKDHFSHLLGIPHSVLQIRYSGKI [IQUB]	2.19 ± 0.38	2.06 ± 0.39		
NDPEKNFLTTAIRPHGIFGPRDPQ [NSDHL]	4.24 ± 0.3	4.24 ± 0.29		
ALRQTVEADVNGLRRVLDELTLAR [KRT16]	3.18 ± 0.58	3.06 ± 0.33		
APDDSKAQAHRIHIDPEIQDGSPT [PDLIM4]	5.59 ± 0.23	5.47 ± 0.12		
ILGPAYFVTYVFFVFFVLLNMFLA [PKD2L1]	2.88 ± 0.45	3.22 ± 0.3		
LPPNNSYADFERFSKVLEEAAAAE [DAPK3]	4.95 ± 0.57	5.07 ± 0.058		
ALVRTRMQAQASIEGAPEVTMSSL [SLC25A25]	3.6 ± 0.34	3.59 ± 0.33		
VHTEFTLRNFNSAKDMKKAVAHMK [MATN2]	3.95 ± 0.17	4.03 ± 0.22		
LYKALGAQDLTEAEGWHFFCFQGE [SAT2]	2.5 ± 0.27	2.29 ± 0.43		
IREALHELLCCTNVSTKEGIHLAL [INTS4]	2.41 ± 0.46	2.48 ± 0.3		
PVDGARYRWQGRRWEPSGKAEPRL [TBX6]	3.68 ± 0.41	3.86 ± 0.76		
QNLVYYRFHRARWGLEEEDFQPRE [P3H4]	2.38 ± 0.17	2.25 ± 0.27		
RLWHTACASDEGEVIVFGGCANNL [KLHDC2]	2.75 ± 0.34	2.89 ± 0.44		
DSDDDDDVAVTVDRDRFMDEFFEQ [STX1A]	5.36 ± 0.49	5.43 ± 0.32		
EEDDGRGRGLLRWDSFSAWLHCVC [DENND6A]	3.06 ± 0.25	3.04 ± 0.29		
EALGHMFMYFLRGSLPWQGLKADT [CSNK1G1]	3.63 ± 0.22	3.19 ± 0.4		
VAFVCAFSEALAEGAVKMGMPSSL [PYCR3]	3.46 ± 0.41	2.42 ± 0.36		
NSLEGGTDATAFWWGEWTKWTACS [ADAMTSL2]		3.25 ± 0.35		

Sequence	protein stability index [1]	protein stability index [2]	protein stability index [3]	protein stability index [4]
SMGFSARYNFTPDPDFKDLGALKP [NETO1]	3.02 ± 0.33	3.26 ± 0.17		
CPLKNPTFLDYVRPRSWTCRYVF [SOAT1]			3.22 ± 0.47	3.06 ± 0.42
HPTYEEKLKLVALHKQVLMGPYNP [ACBD3]	2.6 ± 0.34	2.69 ± 0.37		
FPLLPDHATALVEAFRLKQQLHAR [PPEF2]	2.74 ± 0.11	2.79 ± 0.09		
PGRSRMISQEEFARQLQLSDPQTV [LPCAT4]	4.44 ± 0.22	4.38 ± 0.12		
HDLIFWRDVKKTGFVFGTTLIMLL [RTN3]	2.81 ± 0.37	2.66 ± 0.49		
EERATRLAELQEQLKAVHEQLAAL [BRD3]	4.59 ± 0.22	4.31 ± 0.062		
PINYQGLRFSGVNDTDFRVYLLGN [POMT2]	2.27 ± 0.23	2.46 ± 0.14		
NTLQTYIRCRHPPPGSHLLYAKMI [VDR]	2.21 ± 0.15	2.33 ± 0.25		
SSSDLVMRARDSVYHIECFRCSVC [ISL2]	2.5 ± 0.33	2.72 ± 0.51		
TDGMILGPEDLSYQIYDVSGESNS [LARP4]	4.71 ± 0.22	4.58 ± 0.37		
QLKVVERTRTATMLCAASGNPDPE [PTPRD]	5.16 ± 0.26	4.86 ± 0.38		
VNNTTLTNSTPLRAACFDGHLEIV [FEM1C]	2.76 ± 0.34	2.61 ± 0.38		
LEEGKHSSHEVKALGAMWKLHKSQ [TRIM9]	3.83 ± 0.22	4.22 ± 0.19		
MSDSTWMSADPHLASSLSPSQDER [NOL4L]	5.31 ± 0.19	5.18 ± 0.28		
NRDLRKASVTIQARAEQEEEFISN [CCDC6]	4.96 ± 0.26	5.05 ± 0.27		
LLIDFAYTSQITVEEGNVQTLLPA [KLHL20]	2.29 ± 0.5	1.94 ± 0.12		
RLTREVEATRRALIDRMVNLHQA [DDIT3]			3.44 ± 0.073	3.83 ± 0.32
LQGVRLSENVVNRMKEPSSPPPAP [CHCHD6]	4.62 ± 0.32	4.939 ± 0.047		
KIEDFREEMWTFRGKIHAFRGQIL [CCDC70]	2.41 ± 0.24	2.09 ± 0.31		
GPQTPKACDSKLTFDAITTIRGEV [MMP1]	3.69 ± 0.28	3.66 ± 0.25		
FVLFLFAYLVTVRGNLSILAAVLV [OR3A1]	3.21 ± 0.52	3.33 ± 0.34		
VSFVERILKSQKERQCALRVFKAR [FBXO39]	2.35 ± 0.41	2.55 ± 0.21		

Sequence	protein stability index [1]	protein stability index [2]	protein stability index [3]	protein stability index [4]
GLLKYCSLLVHGFKPACMSEIKNL [TENT5D]	3.48 ± 0.69	2.59 ± 1.2		
VLSVSKILHIPQVTKLCVQFLNDQ [KLHL14]	2.52 ± 0.48	2.29 ± 0.35		
SLQNSLECAMETTEEQTRQERQGP [NECAB1]	5.09 ± 0.17	5.22 ± 0.25		
DIASRYPTLWTEQVKSRQNKTNKN [SMOC2]	3.98 ± 0.18	4.36 ± 0.33		
GSELRDFPGRPMGHLSKDVDENDS [DLC1]	5.63 ± 0.24	5.51 ± 0.17		
GGCTVGVAGEGVRRKGEMGLSAED [TRIM15]	4.98 ± 0.46	5.21 ± 0.37		
REIKVTLVFEHVDQDLRTYLDKAP [CDK4]	2.65 ± 0.56	2.68 ± 0.72		
SVNWRTGSFHGPGHISLRRENSSD [DLC1]	3.78 ± 0.21	3.86 ± 0.2		
ANPQYTVYSQASTMSIPVAMETDG [PPP2R5C]	4.26 ± 0.33	4.41 ± 0.21		
RPLGIRAGPNGTLFVADAYKGLFE [APMAP]	2.66 ± 0.27	2.61 ± 0.44		
FDVVVILTCSLSFLLCARSLLRGF [MCOLN1]	3.38 ± 0.31	2.98 ± 0.54		
TTVVVFVASMVLGECRQMSSSSQI [CLCN6]	3 ± 0.49	3.22 ± 0.24		
FVCQCFEGYILREDGKTCRRKDVC [MATN2]	1.99 ± 0.39	3.09 ± 0.092		
CRLRCHPPRGPLAKHRLVPPAQGR [TRIM9]	2.84 ± 0.14	3.47 ± 0.56		
IAHDFPGIGHKVDAVFMKDGFFYF [MMP1]	2.41 ± 0.69	2.27 ± 0.16		
EVTLSEAGSTAGAAETRGAVEGAA [PALM]	5.43 ± 0.39	5.43 ± 0.17		
DSGVGKSNLLSRFTRNEFNLESKS [RAB11A]	4.03 ± 0.11	4.08 ± 0.21		
QPFYHDDSYTATGYGRAPGGLSLH [JUNB]	3.18 ± 0.39	3.36 ± 0.24		
EVPLISFTGSQPTAERITQLSAPH [ALDH8A1]	3.86 ± 0.35	3.96 ± 0.43		
SHRPNQHNTVKLGAFQAQEKELVF [PRIM1]	3.06 ± 0.62	3.25 ± 0.37		
GFWETIFGNRIKRVKLISNKGTET [PHTF1]	1.6 ± 0.16	2.74 ± 0.053		
EGREAPALVAAGGAPEDDEEDDGR [DENND6A]	5.68 ± 0.29	5.72 ± 0.3		
LKPSWFDFGFAILGFAYAKEDKIM [MIA2]	3.06 ± 0.61	2.34 ± 0.53		

Sequence	protein stability index [1]	protein stability index [2]	protein stability index [3]	protein stability index [4]
ETSPLPGMLAPAAGPAFDSDPEIS [PPFIA4]	5.48 ± 0.29	5.38 ± 0.31		
QKHTEVETVDLVLKLKNKLLQADR [DENND6A]	3.49 ± 0.33	3.45 ± 0.32		
RGMATKLLARPGTGEHREFKLDKK [FBF1]	4.47 ± 0.33	4.62 ± 0.13		
RIRAILSTYRKRTPVMEGYVEVKE [LOXL2]	2.62 ± 0.35	2.67 ± 0.38		
AISLSTGRESYIPGICVARVYHGW [SLA]	2.92 ± 0.85	2.48 ± 0.92		
SPRRVGFVGAGRMAGAIAQGLIRA [PYCR3]	2.66 ± 0.15	2.78 ± 0.14		
PAGVGVVVEATHMCMVMRGVQKMN [GCH1]	2.41 ± 0.23	2.32 ± 0.34		
LNMFLAIINDTYSEVKEELAGQKD [PKD2L1]	2.21 ± 0.3	2.37 ± 0.43		
RHAQTISGHALRILIVDWDVHHGN [HDAC6]	2.18 ± 0.18	2.34 ± 0.4		
MLIEELYAFMPARSQDPKKPSRV [CBY2]			2.57 ± 0.46	2.55 ± 0.17
EETHLEETTESQQNGEEGTSTPED [SMARCE1]	5.48 ± 0.29	5.63 ± 0.23		
SFNILVEDRVKLFGIEIEVTDIND [PCDHGA10]	2.17 ± 0.4	2.55 ± 0.59		
DRFAQDSEMKKCSDYESIEVPDSY [PPEF2]	5.15 ± 0.23	5.15 ± 0.34		
VIFLLLFAPFIVYYFIMACDQYSC [DHCR7]	2.41 ± 0.19	2.39 ± 0.33		
EIPTGKKDHECSECGKTFIYNSHL [ZNF232]	3.7 ± 0.21	3.49 ± 0.28		
KMNGSHRDQGSSALSGVGGIRLPN [IKZF1]	4.1 ± 0.32	3.8 ± 0.12		
REEEEQVRAHAPRGNAPPRGKGL [KCNG1]			3.15 ± 1.3	3.68 ± 0.65
LKTSEVTQHLPRECLPENLGGYVK [PTPN9]	3.97 ± 0.38	3.73 ± 0.56		
RLTQYMDGSGMPKTMQSEETRVWH [CAMK2D]	3.44 ± 0.47	3.51 ± 0.19		
ATSESTTVEPGKLDVGATEGQDLQ [DRICH1]	5.46 ± 0.27	5.5 ± 0.22		
